From patent US20110020361A1

Target: cell surface-associated mesothelin (UniProt Q13421)
Assay: flow cytometry titration of IgG1 m912 on H9 cells, medium fluorescent units

**Q.** IgG1 m912 (antibody) was tested. Which 50% binding did it give?
**A.** Its 50% binding is 5 to 10 nM.
